Laboratory results: patent US10202610B2, “Recombinant K1-5 bacteriophages and uses thereof” (priority 2017, dated 2019)

Test system: K1-5 phage
Test: Plaquing efficiency of K1-5 phage on K1 E. coli strains with inducible CRISPR-Cas9 and sgRNAs targeting the phage genome
Assay type: cell-based, K1-5 bacteriophage
Settings: K1-5 phage plated on strains expressing the sgRNAs, in the absence of homology for repair
Method: K1 E. coli strains were generated for cleaving and recombining at locations specified by either sgRNAs 86+89 or sgRNAs 1112+1122. Cells were maintained with 50 μg/mL kanamycin (for the CRISPR expression vector) and 10 μg/mL gentamicin (for the recombination expression vector). Cells were grown while shaking at 37° C. to OD600˜0.6 and were then subjected to various induction treatments. Cultures were either (1) not induced, (2) induced with 100 ng/mL anhydrotetracycline (aTc) to activate Cas9 expression, (3) induced with 0.2% arabinose to activate lambda red operon expression, or (4) induced with both 100 ng/mL anhydrotetracycline and 0.2% arabinose to activate expression of Cas9 and lambda red genes. Induction was carried out for 2 hours while shaking at 37° C.
K1-5 lysate was then used to infect 200 μL cultures of each bacterial strain/induction condition at 10^6, 10^4, and 10^2 PFU. This infection was given 10 minutes for the phage to adsorb before being added to 3 mL of 0.65% LB top agar. The appropriate inducer was spiked into each top agar tube to maintain induction. The top agar was then spread over an LB agar plate containing the appropriate antibiotics to maintain the CRISPR and recombination expression vectors. The agar plates were incubated in an airtight container for approximately 16 hours at 37° C. […]

Molecule | reduction in plaquing efficiency
sgRNAs 1112+1122: pair of single guide RNAs, SEQ ID NO: 18 and 19, targeting the K1-5 phage genome with Cas9 (nucleic acid, further chemistry not given here) guide 1: UAUAUUAUACCAGAGAGGCGGUUUUAGAGCUAGAAAUAGCAAGUUAAAAUAAGGCUAGUCCGUUAUCAACUUGAAAAAGUGGCACCGAGUCGGUGCUUUUUUU guide 2: GAAGUUCUAAGGAGAUAACAGUUUUAGAGCUAGAAAUAGCAAGUUAAAAUAAGGCUAGUCCGUUAUCAACUUGAAAAAGUGGCACCGAGUCGGUGCUUUUUUU | 2105 fold
sgRNAs 86+89: pair of single guide RNAs, SEQ ID NO: 16 and 17, targeting the K1-5 phage genome with Cas9 (nucleic acid, further chemistry not given here) guide 1: ACUAAAUGAGGAUUAAAUCAGUUUUAGAGCUAGAAAUAGCAAGUUAAAAUAAGGCUAGUCCGUUAUCAACUUGAAAAAGUGGCACCGAGUCGGUGCUUUUUUU guide 2: UUACUCUGAUGCACUACAUGGUUUUAGAGCUAGAAAUAGCAAGUUAAAAUAAGGCUAGUCCGUUAUCAACUUGAAAAAGUGGCACCGAGUCGGUGCUUUUUUU | ~1.9×10^6 fold
